Laboratory results from US11162953B2, “Protein binding domains stabilizing functional conformational states of GPCRS and uses thereof” (priority 2010, dated 2021).
Entries after “also recorded” stand apart in the source; their conditions may differ. Counter-ions that a name gives are not always drawn. Like-named read-outs stand apart in the source and are kept apart here.

B1: NB65: β2AR-specific nanobody, SEQ ID NO:5 (protein, listed as Lama glama)
VHH: QVQLQESGGGLVQAGGSLRLSCAASGSIFSINTMGWYRQAPGKQRELVAAIHSGGSTNYADSVRGRFTISRDNAKNTVYLQMNSLKPEDTAVYYCNVKDYGAVLYEYDYWGQGTQVTVSS
B2: NB71: β2AR-specific nanobody, SEQ ID NO:25 (protein, listed as Lama glama)
VHH: QVQLQESGGGLVQPGGSLRLSCAASGFAFSSYELRWYRQAPGKQHELVAGITTGGNTYYADSVKGRFTISRDNAKNTVYLQMSNLRPEDTAVYACNANWDLLSDYWGQGTQVTVSS
B3: NB69: β2AR-specific nanobody, SEQ ID NO:26 (protein, listed as Lama glama)
VHH: QVQLQESGGGLVQPGGSLRLSCAASGSIFSINAMGWYRQAPGKQRDLVASITSGGSTNYADSVKGRFTISRDNAKNTVYLQMNSLKPEDTAVYYCNVQGTGPSSWLFNEYDYWGQGTQVTVSS
B4: NB72: β2AR-specific nanobody, SEQ ID NO:24; the tested NB72 is assumed to be this one (protein, listed as Lama glama)
VHH: QVQLQESGGGLVQPGGSLRLSCAASGFTFSGYAMNWVRQAPGKGPEWVSAINSGGGSTSYADSVKGRFTISRDNAKNTVYLQMNSLKPEDTAVYYCHARDIYSDFLGQYEYDYWGQGTQVTVSS
B5: NB67: β2AR-specific nanobody, SEQ ID NO:20 (protein, listed as Lama glama)
VHH: QVQLQESGGGLVQAGGSLRLSCAASGTISSFIAMGWYRQSPGKQRELVAGITSGGETNYEDSVKGRFTISRDNAKNTLYLQMNTLKPEDTAVYYCNAQVFADIFNLINYWGQGTQVTVSS
B6: NB84: β2AR-specific nanobody, SEQ ID NO:29; the tested NB84 is assumed to be this one (protein, listed as Lama glama)
VHH: QVQLQESGGGLVQAGGSLRLSCAASGSIFSINAMGWYRQAPGKQRELVAAITSGGSTTYADSVKGRFTVSRDNAKNTVYLQMIRLKPEDTAVYYCHVRDIYSDFLGQYEYDYWGQGTQVTVSS

Assays:
[1] = target: T1, β2AR (Homo sapiens, UniProt P07550); assay type: binding
[2] = test system: β2AR; test: Size exclusion chromatography of nanobody with purified agonist- or inverse agonist-bound β2AR; assay type: binding, human; conditions: 20 μM β2AR bound to agonist or inverse agonist, 40 μM nanobody
Method: The mixture was then analyzed by Size Exclusion Chromatography (SEC), which separates protein on the basis of size. Seven of the nanobodies bound to purified β2AR and migrated as a complex on SEC only in the presence of agonist and not an inverse agonist (an example is shown in FIG. 1, Panel a, FIGS. 3A, 3B, and FIG. 4).
Agonist selective nanobodies were identified by size exclusion chromatography following incubation of 20 μM agonist or inverse agonist-(carazolol-) bound β2AR-365N for one hour at RT in the absence or presence of 40 μM nanobody.

[3] = target: T1, β2AR; conditions: agonist competition binding, Sf9 membranes
Source text: The IC50 values used for calculations of Ki values were obtained from means of pIC50 values determined by nonlinear regression analysis using Prism (GraphPad Software, San Diego, Calif.) and the s.e. interval from pIC50±s.e.

[4] = target: T1, β2AR; test: Monobromobimane fluorescence of purified mBBr-labeled β2AR; assay type: biochemical; design: made in house; conditions: 1 μM nanobody, β2AR bound to full agonist isoproterenol
Source text: To investigate the effect of nanobodies on movement of the cytoplasmic domain of TM6 we labeled purified β2AR at C265 with monobromobimane (mBB-β2AR). […] In mBB-β2AR, the addition of agonist together with G protein results in larger fluorescent changes than either agonist or G protein alone. This is compatible with the cooperative interactions observed in agonist competition binding assays (Yao et al. 2009).
Purified β2AR was reacted with 1:1 equivalent of monobromobimane (mBBr, Invitrogen) in 100 mM NaCl, 20 mM HEPES, pH 7.5, 0.1% dodecyl maltoside and incubated overnight on ice in the dark. The fluorophore-labeled receptor was purified right before use by gel filtration on a desalting column equilibrated with the same buffer. […] All experiments were performed at 25° C. […] To determine the effect of nanobodies and ligands, three individual labeled protein samples were incubated with 1 μM nanobody or 10 μM Isoproterenol or both. Emission spectra of the samples were taken after 1 hour incubation.

[5] = ratio of IC50 with irrelevant Nb to IC50 with 500 nM Nb80, 3H-DHA radioligand

Molecule | Potency shift [1, 5] | complex formation with β2AR on SEC [2] | enhancement of the affinity of β2AR for the agonist isoproterenol in the presence of nanobody [3] | other results
CC(Cc1ccc(O)cc1)NCC(O)c1cc(O)cc(O)c1 (centres unmarked) [fenoterol, fenoterol hydrobromide] | 3.7 |  |  | 
metaproterenol hemisulfate salt |  |  |  | Potency shift [1]: 2.9
CC(CCc1ccc(O)cc1)NCCc1ccc(O)c(O)c1 (centres unmarked) [dobutamine, dobutamine hydrochloride] | 2.3 |  |  | 
CCC(NC(C)C)C(O)c1ccc(O)c2[nH]c(=O)ccc12 (centres unmarked) [procaterol, procaterol hydrochloride] | 2.3 |  |  | 
CC(NCCc1ccc(O)cc1)C(O)c1ccc(O)cc1 (centres unmarked) [ritodrine, ritodrine hydrochloride] | 2.7 |  |  | 
B1 |  | elutes at an earlier volume | two- to thirty-fold | nanobody-induced change of mBBr fluorescence ([4]; listed as 65): Comparable results; also recorded: stabilize a more active state of the β2AR
B2 |  | elutes at an earlier volume | two- to thirty-fold | nanobody-induced change of mBBr fluorescence ([4]; listed as 71): Comparable results; also recorded: stabilize a more active state of the β2AR
B3 |  | elutes at an earlier volume | two- to thirty-fold | nanobody-induced change of mBBr fluorescence ([4]; listed as 69): Comparable results; also recorded: stabilize a more active state of the β2AR
B4 |  | elutes at an earlier volume | two- to thirty-fold | nanobody-induced change of mBBr fluorescence ([4]; listed as 72): Comparable results; also recorded: stabilize a more active state of the β2AR
B5 |  | elutes at an earlier volume | two- to thirty-fold | nanobody-induced change of mBBr fluorescence ([4]; listed as 67): Comparable results; also recorded: stabilize a more active state of the β2AR
B6 |  | elutes at an earlier volume | two- to thirty-fold | nanobody-induced change of mBBr fluorescence ([4]; listed as 84): Comparable results; also recorded: stabilize a more active state of the β2AR
